Earlier results on one substance are cited in US11850285B2, “Insulin-responsive glucagon delivery patch” (North Carolina State University, priority 2017, dated 2023).

For the data set the following is noted: in vivo.

As for Insulin glargine, the duration entry is given as “up to 24 hour”.
